The source of these data is PMC11551737, “Structural and functional insights into the interaction between the bacteriophage T4 DNA processing proteins gp32 and Dda” (Nucleic Acids Research, 2024).

Changes are numbered by the printed parent chain. In names and notes the source's numbering stands.

Assay [1] deals with T1, wild-type Dda/dT20 (Enterobacteria phage T4, UniProt P32270).
T1 construct: His-tag; made in house
It is filed as binding, bacteriophage T4. The following applies: SPR, Biacore T200, 25°C; wild-type Dda/dT20 on NTA chip; average of three experiments. On the technique in general: In SPR one partner is held on a chip, and binding of the other changes the refractive index at the surface.
Experimental: These experiments were conducted at 25°C using a Biacore 3000 optical biosensor (Cytiva). […] The chip was primed in chelating buffer (10 mM HEPES pH 7.4, 150 mM NaCl, 50 μM EDTA, 0.005% Tween20) and was preconditioned at 10 μl/min with three 60 s injections of wash buffer (10 mM HEPES pH 8.3, 150 mM NaCl, 350 mM EDTA, 0.05% Tween20) and one 60 s injection of chelating buffer before being charged with a 60 s injection of 500 μM NiCl2 in chelating buffer. […] Any remaining active sites were blocked by Tris molecules in the binding analysis buffer (20 mM Tris-acetate pH 8.0, 150 mM NaCl, 10 mM magnesium acetate, 3 mM potassium glutamate, 1 mM TCEP, 0.05% Tween20, 10% glycerol). […] The data were processed, double-referenced and analyzed using the software package Scrubber2 (version 2.0c, BioLogic Software). The equilibrium dissociation constants (KD) were determined using steady-state analysis, specifically an equilibrium affinity analysis to fit the data to a 1:1 (Langmuir) interaction model.
These experiments were conducted at 25°C using a Biacore T200 optical biosensor (Cytiva) and NTA chip sensor S series; Cytiva. […] Also, the data were analyzed using the Biacore T200 Evaluation software package (version 3.1).

Assay [2] has as its target T2, bacteriophage T4 helicase Dda, wild type (bacteriophage T4) (UniProt P32270).
T2 sequence: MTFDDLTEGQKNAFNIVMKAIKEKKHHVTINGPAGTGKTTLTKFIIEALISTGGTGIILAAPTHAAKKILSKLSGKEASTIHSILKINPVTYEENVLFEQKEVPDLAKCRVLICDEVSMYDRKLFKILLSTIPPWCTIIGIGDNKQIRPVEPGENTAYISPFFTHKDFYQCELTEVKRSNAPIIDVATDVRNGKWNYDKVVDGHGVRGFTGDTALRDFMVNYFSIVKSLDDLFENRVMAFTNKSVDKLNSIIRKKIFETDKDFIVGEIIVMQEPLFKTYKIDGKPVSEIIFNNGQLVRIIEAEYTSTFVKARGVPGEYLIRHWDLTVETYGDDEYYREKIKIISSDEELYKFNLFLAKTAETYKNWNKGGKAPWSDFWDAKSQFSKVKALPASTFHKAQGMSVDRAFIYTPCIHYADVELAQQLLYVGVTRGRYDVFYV

Assay [3] relates to wild-type Dda. Nature of the assay: Dda-dependent DNA unwinding assay with gp32 variants (fluorescein-quenched replication fork substrate, no annealing trap). Format: biochemical, bacteriophage T4. The following applies: 375 nM gp32 variant, 25 nM wild-type Dda, 25 nM substrate, 2.5 mM ATP, triplicate experiments; for Rate constant of product formation (single exponential fit): 5 mM Mg(OAc)2, pH 7.5, room temperature, fluorescein fluorescence; for Amplitude of the product formation curve (fluorescence): higher amplitude = more effective prevention of reannealing. Here is the method:
A partial duplex substrate mimicking a replication fork was prepared by mixing equimolar concentrations of the following oligonucleotides: loading strand - […]/36-FAM/, displaced strand - […], and leading strand - […] in 10 mM HEPES/1 mM EDTA. The sample was heated to 95°C for 5 min, followed by slowly cooling to room temperature. All concentrations are final, after mixing. ATP (2.5 mM), Mg(OAc)2 (5 mM) and gp32 (375 nM) in assay buffer (25 mM HEPES, pH 7.5, 10 mM KOAc, 0.1 mM EDTA, 2 mM β-mercaptoethanol, 1 mg/ml bovine serum albumin and 4 mM phosphoenol pyruvate) were mixed and added to wells in one row of a black 96-well plate. The reactions were initiated by adding 25 nM substrate, 25 nM wild-type Dda and 5 U/ml pyruvate kinase/lactate dehydrogenase in assay buffer with a multichannel pipette to the entire row simultaneously. Fluorescein fluorescence was measured 8 times per minute in a VICTOR Nivo Multimode Plate Reader (Perkin Elmer) at room temperature with excitation through a 480/30 nm bandpass filter and emission measured after a 530/30 nm bandpass filter.

The target of assay [4] is T3, bacteriophage T4 helicase Dda, ATPase deficient mutant K38A (bacteriophage T4, UniProt P32270 1-439, K38A).
T3 construct: Dda, SF1B helicase of bacteriophage T4, active site point mutant K38A; called His-tagged in SPR analysis 1; theoretical mass printed as 52 046 Da; also called Dda-K38A; Dda–K38A
T3 sequence: T2 sequence with K38A
Nature of the assay: SPR; SPR analysis 1: Biacore 3000, 25°C; His-tagged Dda-K38A/dT20 immobilised on an NTA chip by capture-coupling (~5800 RU); peptides injected, 4-fold dilution series, maximum 100 μM; 20 mM Tris-acetate pH 8.0, 150 mM NaCl, 10 mM magnesium acetate, 3 mM potassium glutamate, 1 mM TCEP, 0.05% Tween20, 10% glycerol; steady-state fit, 1:1 model. The following applies: both partners purified.

In assay [5] the target is T4, bacteriophage T4 helicase Dda, wild type (bacteriophage T4, UniProt P32270 1-439).
T4 construct: Dda, SF1B helicase of bacteriophage T4, wild type; also called wild-type Dda
T4 sequence (looked up): T2 sequence
Briefly: SPR; SPR analysis 2: Biacore T200, 25°C; wild-type Dda/dT20 immobilised on an NTA chip as in SPR analysis 1; peptides injected, 2-fold dilution series, 100 μM to 0.78 μM; steady-state analysis. The following applies: both partners purified.

The target of assay [6] is T5, bacteriophage T4 helicase Dda, wild type (bacteriophage T4, UniProt P32270 1-439).
T5 chain: T2 sequence
Nature of the assay: SPR; wild-type Dda bound to dT20.

With AATAAKKADKEADDLDAANVDDF [V258E/F265A], the Rmax in assay [1] is 115 (+/- 5.88) RU.

As to AATAAKKEDKVADDADAFNVDDF [A255E/L262A], the Rmax in assay [1] is listed as 196 (+/- 12.6) RU.

B1: gp32-B (21–301), gp32 that lacks the N-terminal region (domain or fragment)
chain: KGFSSEDKGEWKLKLDNAGNGQAVIRFLPSKNDEQAPFAILVNHGFKKNGKWYIETCSSTHGDYDSCPVCQYISKNDLYNTDNKEYSLVKRKTSYWANILVVKDPAAPENEGKVFKYRFGKKIWDKINAMIAVDVEMGETPVDVTCPWEGANFVLKVKQVSGFSNYDESKFLNQSAIPNIDDESFQKELFEQMVDLSEMTSKDKFKSFEELNTKFGQVMGTAVMGGAAATAAKKADKVADDLDAFNVDDFNTKTEDDFMSSSSGSSSSADDTDLDDLLNDL
On to B1, for which the amplitude of the product formation curve (fluorescein fluorescence) in the Dda-dependent DNA unwinding assay without annealing trap; 375 nM gp32, 25 nM wild-type Dda, 25 nM substrate in assay [2] worked out at 200000.

B2: gp32-B: gp32 lacking the N-terminal region (residues 21–301) (protein)
chain: B1 chain
modifications: left off: 6xHis, N-terminal, state not stated
As to B2, in assay [3], the “Rate constant of product formation (single exponential fit)” value (“Rate constant of product formation” for short) came to 0.013 s⁻¹ and the “Amplitude of the product formation curve (fluorescence)” value (shortened to “Amplitude … (fluorescence)”) was 200 000.

B3: full-length gp32 variant A255E/L262A (natural protein)
chain: MFKRKSTAELAAQMAKLNGNKGFSSEDKGEWKLKLDNAGNGQAVIRFLPSKNDEQAPFAILVNHGFKKNGKWYIETCSSTHGDYDSCPVCQYISKNDLYNTDNKEYSLVKRKTSYWANILVVKDPAAPENEGKVFKYRFGKKIWDKINAMIAVDVEMGETPVDVTCPWEGANFVLKVKQVSGFSNYDESKFLNQSAIPNIDDESFQKELFEQMVDLSEMTSKDKFKSFEELNTKFGQVMGTAVMGGAAATAAKKEDKVADDADAFNVDDFNTKTEDDFMSSSSGSSSSADDTDLDDLLNDL
Regarding B3, in assay [2], the amplitude of the product formation curve (fluorescein fluorescence) in the Dda-dependent DNA unwinding assay without annealing trap; 375 nM gp32, 25 nM wild-type Dda, 25 nM substrate was 130000.

B4: gp32 A255E/L262A: full-length gp32 variant A255E/L262A designed to reduce gp32–Dda interactions (protein)
chain: B3 chain
modifications: left off: 6xHis, N-terminal, state not stated
Turning to B4, in assay [3], the “Rate constant of product formation” value turned out to be 0.023 s⁻¹ and the “Amplitude … (fluorescence)” value is given as 130 000.

B5: gp32 V258E/F265A: full-length gp32 variant V258E/F265A designed to reduce gp32–Dda interactions (protein)
chain: B3 chain with E255A, V258E, A262L, F265A
modifications: left off: 6xHis, N-terminal, state not stated
For B5, in assay [3], the “Rate constant of product formation” value was 0.026 s⁻¹ and the “Amplitude … (fluorescence)” value is on record as 87 000.

B6: full-length gp32 variant V258E/F265A (natural protein)
chain: B3 chain with E255A, V258E, A262L, F265A
As for B6, in assay [2], the amplitude of the product formation curve (fluorescein fluorescence) in the Dda-dependent DNA unwinding assay without annealing trap; 375 nM gp32, 25 nM wild-type Dda, 25 nM substrate turned out to be 87000.

B7: gp32 C-terminal peptide 248–272 (peptide, UniProt P03695 248-272, looked up)
peptide: AATAAKKADKVADDLDAFNVDDFNT
notes: source: synthetic peptide
For the molecule B7, the binding result in assay [4] was “binds”.

B8: gp32-A (1–254), gp32 that lacks the C-terminal region (domain or fragment)
chain: MFKRKSTAELAAQMAKLNGNKGFSSEDKGEWKLKLDNAGNGQAVIRFLPSKNDEQAPFAILVNHGFKKNGKWYIETCSSTHGDYDSCPVCQYISKNDLYNTDNKEYSLVKRKTSYWANILVVKDPAAPENEGKVFKYRFGKKIWDKINAMIAVDVEMGETPVDVTCPWEGANFVLKVKQVSGFSNYDESKFLNQSAIPNIDDESFQKELFEQMVDLSEMTSKDKFKSFEELNTKFGQVMGTAVMGGAAATAAKK
In turn, B8 had an amplitude of the product formation curve (fluorescein fluorescence) in the Dda-dependent DNA unwinding assay without annealing trap; 375 nM gp32, 25 nM wild-type Dda, 25 nM substrate in assay [2] of 86000.

B9: gp32-A: gp32 lacking the C-terminal region (residues 1–254) (protein)
chain: B8 chain
modifications: left off: 6xHis, N-terminal, state not stated
On to B9, for which, in assay [3], the “Rate constant of product formation” value was determined as 0.021 s⁻¹ and the “Amplitude … (fluorescence)” value is listed as 86 000.

B10: gp32 C-terminus peptide encompassing residues 248–270 (peptide)
peptide: AATAAKKADKVADDLDAFNVDDF
notes: also called gp32 C-terminal peptide; source: synthetic peptide
As for B10, the binding result in assay [5] is “binds”.

B11: V258E/F265A mutant of gp32 peptide 248–270 (peptide, UniProt P03695 248-270, looked up)
peptide: AATAAKKADKEADDLDAANVDDF
notes: probably a synthetic peptide like those of SPR analysis 1; also called mutant peptide V258E/F265A
In assay [6], B11 registered a Kd of 492 µM. Further, the “fold less binding than the wild-type peptide 248–270” value in assay [5] was roughly 10 fold.

B12: A255E/L262A mutant of gp32 peptide 248–270 (peptide, UniProt P03695 248-270, looked up)
peptide: AATAAKKEDKVADDADAFNVDDF
notes: probably a synthetic peptide like those of SPR analysis 1; also called mutant peptide A255E/L262A
For the molecule B12, the Kd in assay [6] was 504 µM. Also, in assay [5], the “fold less binding than the wild-type peptide 248–270” value is roughly 10 fold.

B13: gp32 C-terminal peptide 248–280 (peptide, UniProt P03695 248-280, looked up)
peptide: AATAAKKADKVADDLDAFNVDDFNTKTEDDFMS
notes: source: synthetic peptide
In the case of B13, the binding result in assay [4] is “binds”.

B14: gp32 C-terminal peptide 271–301 (peptide)
peptide: NTKTEDDFMSSSSGSSSSADDTDLDDLLNDL
B14 gave a Kd in assay [6] of 178 µM.

The Kd is the equilibrium constant for the complex coming apart. Low values mean tighter binding, high ones weaker binding.
